What was measured:
Human BCMA (human) = Human BCMA (human) (UniProt Q02223); experiment: SPR, IgG on chip, huBCMA analyte
cynomolgus monkey BCMA = target: T1, cynomolgus monkey BCMA (cynomolgus monkey, UniProt A0A2K5UD97 1-53); experiment: SPR, IgG on chip, cyBCMA analyte
T1 construct: Soluble analyte in SPR; construct not described; also called cyBCMA; Cyno BCMA
T1 sequence (A0A2K5UD97 entry or part of it): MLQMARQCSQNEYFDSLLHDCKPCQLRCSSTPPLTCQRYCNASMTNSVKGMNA

Binder	Kd (Human BCMA (human))	koff (Human BCMA (human))	kon (Human BCMA (human))	Kd (cynomolgus monkey BCMA)	koff (cynomolgus monkey BCMA)	kon (cynomolgus monkey BCMA)
COMBO_Rd4_0.6nM_C21 (antibody, V domains shown, IgG) VH: EVQLLESGGGLVQPGGSLRLSCAASGFTFSSYPMSWVRQAPGKGLEWVSAIGGSGGSLPYADSVKGRFTISRDNSKNTLYLQMNSLRAEDTAVYYCARYWPMDSWGQGTLVTVSS VL: EIVLTQSPGTLSLSPGERATLSCRASQSVSSSYLAWYQQKPGQAPRLLMYDASIRATGIPDRFSGSGSGTDFTLTISRLEPEDFAVYYCQQYQSWPLTFGQGTKVEIK	0.009 nM	0.000115 s⁻¹	1.34e+07 M⁻¹ s⁻¹	0.084 nM	0.000304 s⁻¹	3.63e+06 M⁻¹ s⁻¹
A02_Rd4_6nM_C19 (antibody, V domains shown, IgG) VH: EVQLLESGGGLVQPGGSLRLSCAASGFTFSSYAMNWVRQAPGKGLEWVSAISDSGGSRWYADSVKGRFTISRDNSKNTLYLQMNSLRAEDTAVYYCARYWPMSDWGQGTLVTVSS VL: EIVLTQSPGTLSLSPGERATLSCRASQSVSVLYLAWYQQKPGQAPRLLMYDASIRATGIPDRFSGSGSGTDFTLTISRLEPEDFAVYYCQQYLAWPLTFGQGTKVEIK	0.049 nM	0.000148 s⁻¹	3e+06 M⁻¹ s⁻¹	0.26 nM	0.000661 s⁻¹	2.54e+06 M⁻¹ s⁻¹
A02_Rd4_0.6nM_C06 (antibody, V domains shown, IgG) VH: EVQLLESGGGLVQPGGSLRLSCAASGFTFSSYAMNWVRQAPGKGLEWVSAISDSGGSAWYADSVKGRFTISRDNSKNTLYLQMNSLRAEDTAVYYCARYWPMSLWGQGTLVTVSS VL: EIVLTQSPGTLSLSPGERATLSCRASQSVSVLYLAWYQQKPGQAPRLLMYDASIRATGIPDRFSGSGSGTDFTLTISRLEPEDFAVYYCQQYQRWPLTFGQGTKVEIK	0.021 nM	7.37e-05 s⁻¹	3.49e+06 M⁻¹ s⁻¹	0.058 nM	0.000105 s⁻¹	1.81e+06 M⁻¹ s⁻¹
A02_Rd4_0.6nM_C09 (antibody, V domains shown, IgG) VH: EVQLLESGGGLVQPGGSLRLSCAASGFTFSSYAMNWVRQAPGKGLEWVSAISDSGGSMWYADSVKGRFTISRDNSKNTLYLQMNSLRAEDTAVYYCARYWPMSLWGQGTLVTVSS VL: EIVLTQSPGTLSLSPGERATLSCRASQSVSSSYLAWYQQKPGQAPRLLMYDASIRATGIPDRFSGSGSGTDFTLTISRLEPEDFAVYYCQQYQSWPLTFGQGTKVEIK	0.018 nM	9.75e-05 s⁻¹	5.5e+06 M⁻¹ s⁻¹	0.082 nM	0.000174 s⁻¹	2.13e+06 M⁻¹ s⁻¹
A02_Rd4_0.6nM_C13 (antibody, V domains shown, IgG) VH: EVQLLESGGGLVQPGGSLRLSCAASGFTFSSYAMNWVRQAPGKGLEWVSAISDSGGYRYYADSVKGRFTISRDNSKNTLYLQMNSLRAEDTAVYYCARYWPMSLWGQGTLVTVSS VL: EIVLTQSPGTLSLSPGERATLSCRASQSVSSSYWAWYQQKPGQAPRLLMYDASIRATGIPDRFSGSGSGTDFTLTISRLEPEDFAVYYCQQYESWPLTFGQGTKVEIK	0.066 nM	0.000566 s⁻¹	8.53e+06 M⁻¹ s⁻¹	0.56 nM	0.00128 s⁻¹	2.29e+06 M⁻¹ s⁻¹
A02_Rd4_0.6nM_C10 (antibody, V domains shown, IgG) VH: EVQLLESGGGLVQPGGSLRLSCAASGFTFSSYAMNWVRQAPGKGLEWVSAISGWGGSLPYADSVKGRFTISRDNSKNTLYLQMNSLRAEDTAVYYCARYWPMDSWGQGTLVTVSS VL: EIVLTQSPGTLSLSPGERATLSCRASQSVSAQYLAWYQQKPGQAPRLLMYDASIRATGIPDRFSGSGSGTDFTLTISRLEPEDFAVYYCQQYQRWPLTFGQGTKVEIK	0.129 nM	0.000296 s⁻¹	2.3e+06 M⁻¹ s⁻¹	1.84 nM	0.00163 s⁻¹	883000 M⁻¹ s⁻¹
A02_Rd4_6nM_C08 (antibody, V domains shown, IgG) VH: EVQLLESGGGLVQPGGSLRLSCAASGFTFSSYAMNWVRQAPGKGLEWVSAILDSGGSTYYADSVKGRFTISRDNSKNTLYLQMNSLRAEDTAVYYCARYWPMSPWGQGTLVTVSS VL: EIVLTQSPGTLSLSPGERATLSCRASQSVSFLYLAWYQQKPGQAPRLLMYDASIRATGIPDRFSGSGSGTDFTLTISRLEPEDFAVYYCQQYGSWPLTFGQGTKVEIK	0.188 nM	0.000738 s⁻¹	3.92e+06 M⁻¹ s⁻¹	5.07 nM	0.0113 s⁻¹	2.23e+06 M⁻¹ s⁻¹
A02_Rd4_0.6nM_C03 (antibody, V domains shown, IgG) VH: EVQLLESGGGLVQPGGSLRLSCAASGFTFSSYAMNWVRQAPGKGLEWVSAISDSGGSKWYADSVKGRFTISRDNSKNTLYLQMNSLRAEDTAVYYCARYWPMSLWGQGTLVTVSS VL: EIVLTQSPGTLSLSPGERATLSCRASQSVSSSYLAWYQQKPGQAPRLLMYDASIRATGIPDRFSGSGSGTDFTLTISRLEPEDFAVYYCQQYFTWPLTFGQGTKVEIK	0.043 nM	0.000182 s⁻¹	4.27e+06 M⁻¹ s⁻¹	0.201 nM	0.000426 s⁻¹	2.12e+06 M⁻¹ s⁻¹
A02_Rd4_6nM_C23 (antibody, V domains shown, IgG) VH: EVQLLESGGGLVQPGGSLRLSCAASGFTFSSYAMNWVRQAPGKGLEWVSAISDSGGSGWYADSVKGRFTISRDNSKNTLYLQMNSLRAEDTAVYYCARYWPMSLWGQGTLVTVSS VL: EIVLTQSPGTLSLSPGERATLSCRASQSVSVEYLAWYQQKPGQAPRLLMYDASIRATGIPDRFSGSGSGTDFTLTISRLEPEDFAVYYCQQYARWPLTFGQGTKVEIK	0.021 nM	0.000255 s⁻¹	1.22e+07 M⁻¹ s⁻¹	0.157 nM	0.000414 s⁻¹	2.63e+06 M⁻¹ s⁻¹
A02_Rd4_6nM_C03 (antibody, V domains shown, IgG) VH: EVQLLESGGGLVQPGGSLRLSCAASGFTFSSYAMNWVRQAPGKGLEWVSAISDSGGSTYYADSVKGRFTISRDNSKNTLYLQMNSLRAEDTAVYYCARYWPMDIWGQGTLVTVSS VL: EIVLTQSPGTLSLSPGERATLSCRASQSVSNLYLAWYQQKPGQAPRLLMYDASIRATGIPDRFSGSGSGTDFTLTISRLEPEDFAVYYCQQYQGWPLTFGQGTKVEIK	0.075 nM	0.000126 s⁻¹	1.69e+06 M⁻¹ s⁻¹	0.158 nM	0.000185 s⁻¹	1.17e+06 M⁻¹ s⁻¹
A02_Rd4_0.6nM_C01 (antibody, V domains shown, IgG; also called P5AC1) VH: EVQLLESGGGLVQPGGSLRLSCAASGFTFSSYAMNWVRQAPGKGLEWVSAILSSGGSTYYADSVKGRFTISRDNSKNTLYLQMNSLRAEDTAVYYCARYWPMDIWGQGTLVTVSS VL: EIVLTQSPGTLSLSPGERATLSCRGGQSVSSSYLAWYQQKPGQAPRLLMYDASIRATGIPDRFSGSGSGTDFTLTISRLEPEDFAVYYCQQYQSWPLTFGQGTKVEIK	0.193 nM	0.000915 s⁻¹	4.74e+06 M⁻¹ s⁻¹	0.655 nM	0.00157 s⁻¹	2.39e+06 M⁻¹ s⁻¹
A02_Rd4_6nM_C05 (antibody, V domains shown, IgG) VH: EVQLLESGGGLVQPGGSLRLSCAASGFTFSSYAMNWVRQAPGKGLEWVSAIFASGGSTYYADSVKGRFTISRDNSKNTLYLQMNSLRAEDTAVYYCARYWPMTPWGQGTLVTVSS VL: EIVLTQSPGTLSLSPGERATLSCRASQSVSSSYLAWYQQKPGQAPRLLMYDASIRATGIPDRFSGSGSGTDFTLTISRLEPEDFAVYYCQQYQRWPLTFGQGTKVEIK	0.099 nM	0.000308 s⁻¹	3.1e+06 M⁻¹ s⁻¹	0.95 nM	0.00129 s⁻¹	1.36e+06 M⁻¹ s⁻¹
A02_Rd4_6nM_C10 (antibody, V domains shown, IgG) VH: EVQLLESGGGLVQPGGSLRLSCAASGFTFSSYAMNWVRQAPGKGLEWVSAISDSGGSCWYADSVKGRFTISRDNSKNTLYLQMNSLRAEDTAVYYCARYWPMTPWGQGTLVTVSS VL: EIVLTQSPGTLSLSPGERATLSCRASQSVEMSYLAWYQQKPGQAPRLLMYDASIRATGIPDRFSGSGSGTDFTLTISRLEPEDFAVYYCQQYAHWPLTFGQGTKVEIK	0.07 nM	0.000315 s⁻¹	4.51e+06 M⁻¹ s⁻¹	0.472 nM	0.000898 s⁻¹	1.9e+06 M⁻¹ s⁻¹
A02_Rd4_6nM_C22 (antibody, V domains shown, IgG) VH: EVQLLESGGGLVQPGGSLRLSCAASGFTFSSYAMNWVRQAPGKGLEWVSAVLDSGGSTYYADSVKGRFTISRDNSKNTLYLQMNSLRAEDTAVYYCARYWPMTPWGQGTLVTVSS VL: EIVLTQSPGTLSLSPGERATLSCRASQSVSSSYLAWYQQKPGQAPRLLMYDASIRATGIPDRFSGSGSGTDFTLTISRLEPEDFAVYYCQQYQVWPLTFGQGTKVEIK	0.054 nM	0.000182 s⁻¹	3.38e+06 M⁻¹ s⁻¹	0.176 nM	0.000324 s⁻¹	1.84e+06 M⁻¹ s⁻¹
A02_Rd4_6nM_C07 (antibody, V domains shown, IgG) VH: EVQLLESGGGLVQPGGSLRLSCAASGFTFSSYAMNWVRQAPGKGLEWVSAIGGSGGSLPYADSVKGRFTISRDNSKNTLYLQMNSLRAEDTAVYYCARYWPMDSWGQGTLVTVSS VL: EIVLTQSPGTLSLSPGERATLSCRASQSVSPYYLAWYQQKPGQAPRLLMYDASIRATGIPDRFSGSGSGTDFTLTISRLEPEDFAVYYCQQYERWPLTFGQGTKVEIK	0.128 nM	0.000189 s⁻¹	1.48e+06 M⁻¹ s⁻¹	1.14 nM	0.000786 s⁻¹	691000 M⁻¹ s⁻¹
A02_Rd4_0.6nM_C26 (antibody, V domains shown, IgG) VH: EVQLLESGGGLVQPGGSLRLSCAASGFTFSSYAMNWVRQAPGKGLEWVSAILMSGGSTYYADSVKGRFTISRDNSKNTLYLQMNSLRAEDTAVYYCARYWPMSLWGQGTLVTVSS VL: EIVLTQSPGTLSLSPGERATLSCGPSQSVSSSYLAWYQQKPGQAPRLLMYDASIRATGIPDRFSGSGSGTDFTLTISRLEPEDFAVYYCQQYQSWPLTFGQGTKVEIK	0.061 nM	0.000443 s⁻¹	7.26e+06 M⁻¹ s⁻¹	0.941 nM	0.00256 s⁻¹	2.71e+06 M⁻¹ s⁻¹
A02_Rd4_6nM_C04 (antibody, V domains shown, IgG) VH: EVQLLESGGGLVQPGGSLRLSCAASGFTFSSYAMNWVRQAPGKGLEWVSAIMSSGGPLYYADSVKGRFTISRDNSKNTLYLQMNSLRAEDTAVYYCARYWPMALWGQGTLVTVSS VL: EIVLTQSPGTLSLSPGERATLSCRASQSVSALYLAWYQQKPGQAPRLLMYDASIRATGIPDRFSGSGSGTDFTLTISRLEPEDFAVYYCQQYQVWPLTFGQGTKVEIK	0.135 nM	0.000603 s⁻¹	4.47e+06 M⁻¹ s⁻¹	0.381 nM	0.000831 s⁻¹	2.18e+06 M⁻¹ s⁻¹

Reference: patent US20190241669A1 (published 2019)
